The values below come from patent US20160340421A1 (Regeneron, published 2016).

The target in assay [1] is T1, Human GDF8 homodimer (mature human Growth and Differentiation Factor-8) (human, UniProt O14793 267-375).
T1 sequence: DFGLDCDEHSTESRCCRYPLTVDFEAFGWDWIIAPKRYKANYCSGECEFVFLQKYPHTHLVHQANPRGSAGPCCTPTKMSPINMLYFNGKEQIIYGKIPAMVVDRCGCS
Description: cell-based or functional assay.

Assay [2] deals with T2, hGDF11 homodimer (human, UniProt O95390 299-407).
T2 sequence (looked up): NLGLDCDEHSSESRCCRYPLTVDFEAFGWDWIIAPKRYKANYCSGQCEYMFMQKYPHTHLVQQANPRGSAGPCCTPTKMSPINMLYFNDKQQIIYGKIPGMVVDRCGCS
Description: cell-based or functional assay.

Assay [3] concerns the target T1, Human GDF8 homodimer (mature human …). The experiment in a line: SPR, antibody captured, 25 nM antigen. Here is the method: (§1) Equilibrium dissociation constants (KD values) for antigen binding to selected antibodies were determined by surface kinetics using a real-time biosensor surface plasmon resonance assay (BIACORE™ 2000). Each selected antibody was captured on either a goat anti-mouse IgG polyclonal antibody surface or a goat anti-hFc polyclonal antibody (Jackson Immuno Research Lab) surface created through direct chemical coupling to a BIACORE™ chip to form a captured antibody surface. Human GDF8 homodimer, hGDF11 homodimer, or hGDF5 homodimer at 25 nM was injected over the captured antibody surfaces, and antigen-antibody binding and dissociation were monitored in real time at room temperature. Kinetic analysis was performed to calculate KD, dissociation rate constants (kd), association rate constants (ka) and half-life of antigen/antibody complex dissociation (Table 2).

Assay [4] concerns the target T2, hGDF11 homodimer. Description: SPR, antibody captured, 25 nM antigen. Here is the method:
as §1
On the technique in general: Surface plasmon resonance follows binding to a sensor surface in real time, without labels.

The target of assay [5] is T1, Human GDF8 homodimer (mature human …). The experiment in a line: SPR, antibody captured, buffer without BSA. Here is the method:
as §1

Assay [6] has as its target T2, hGDF11 homodimer. The experiment in a line: SPR, antibody captured, buffer without BSA. Here is the method: as §1
The target of assay [7] is T1, Human GDF8 homodimer (mature human …). Description: SPR Biacore T100, captured on anti-hFc, 37°C. Here is the method: (§2) Additional antigen binding experiments were conducted in which GDF8 and GDF11 were applied over a surface of selected anti-GDF8 antibodies and control antibodies at 25° C. and 37° C. Equilibrium dissociation constants (KD values) for antigen binding to selected antibodies were determined by surface kinetics using a real-time biosensor surface plasmon resonance assay (BIACORE™ T100). […] Various concentrations (2.5-0.625 nM, 2-fold dilutions) of hGDF8 homodimer or hGDF11 homodimer (or in some experiments, Activin A) were injected over the captured antibody surfaces, and antigen-antibody binding and dissociation were monitored in real time. Kinetic analysis was performed to calculate KD, dissociation rate constants (kd), association rate constants (ka) and half-life of antigen/antibody complex dissociation. (NB=no binding observed).

The target is the same in assay [8]. The experiment in a line: SPR Biacore T100, captured on anti-hFc, 25°C. Here is the method: as §2
The target is the same in assay [9]. Description: cell-based or functional assay. The source holds these as a separate data set.
Assay [10] deals with T2, hGDF11 homodimer. The experiment in a line: cell-based or functional assay. The source holds these as a separate data set.
For assay [11], the target named is T2, hGDF11 homodimer. Description: GDF11-inducible luciferase bioassay, 0.4 nM GDF11 (legend: NB=no binding).

Positions count from the first letter of the chain named. Bounds are passed on as bounds.

B1: 21-A2 (antibody, V domains shown)
VH: QVQLVQSGGGLVQPGGSLRLSCAASGFTFNTYAISWVRQAPGKGLEWVSTITGSGYNTYYADSVKGRFTISRDNSKNTLYLQMSSLRAEDTAVFYCAKDSRYNWNYGIFDYWGQGTTVTVSS
VL: DIQMTQSPATLSVSPGERATLSCRASQSVSSNLAWYHQKPGQAPRLLIYGVSTRATGIPARFSGNGSGTEFTLTISSLQSEDFAVYYCQQHNNWPLTFGGGTKVEIKR
Take B1: the “IC50, GDF8-inducible luciferase, A204/Smad2 cells, 0.8 nM GDF8” value (from here on “IC50 … A204/Smad2 cells, 0.8 nM GDF8”) in assay [1] came out at 9.7 nM. Moreover, the “IC50, GDF11-inducible luciferase, A204/Smad2 cells, 0.8 nM GDF11” value (“IC50 … A204/Smad2 cells, 0.8 nM GDF11” for short) in [2] is more than 10 nM. For the same molecule, in [3], the Kd was determined as 0.4 nM and the T1/2 was determined as 1.3 h. In addition, in assay [4], the equilibrium dissociation constant (Kd) came to 0.9 nM and the T1/2 stood at 0.35 h.

B2: 4B9 (antibody, V domains shown)
VH: EVQLLESGGGLVQPGGSLRLSCAASGFTSITYAMSWVRQAPGKGLEWVSAISVSGTNTYYADSVKGRFTISRDKSKNMLYLQMNSLRAEDTAVYYCAKDLLHNWKYGTFDIWGQGTMVTVSS
VL: EIVMTQSPATLSVSPGERATLSCRASQSVDSNLVWYQQKPGQVPRLLIYGASTRATGIPARFSGSGSGTEFTLTISSLQSEDFAVYYCQQYNKWPLTFGGGTKVEIK
On to B2, for which the “IC50 … A204/Smad2 cells, 0.8 nM GDF8” value in assay [1] came to 0.47 nM. Also, the “IC50 … A204/Smad2 cells, 0.8 nM GDF11” value in assay [2] is more than 25 nM. Besides, the Kd turned out to be 0.55 nM in assay [3] and 1.09 nM in assay [4]. Moreover, the T1/2 in [3] turned out to be 0.917 h; in [4] it was 0.567 h.

B3: 1A2-hIgG (antibody, V domains shown)
VH: B2 VH
VL: B2 VL
notes: variable domains of 1A2
Regarding B3, the values for the Kd in assay [5] and in [6] were 0.006 nM and 0.64 nM, respectively. Also, the T1/2 in assay [5] was 5.67 h; in [6] it was 6 min.

B4: 1A2-mIgG (antibody, V domains shown)
VH: B2 VH
VL: B2 VL
notes: variable domains of 1A2
As for B4, in [5], binding was put at a Kd of 0.018 nM and the T1/2 is 2.53 h. In assay [6], this molecule showed an equilibrium dissociation constant (Kd) of 0.926 nM and a T1/2 of 1 min.

B5: 1A2-hIgG1 (antibody, V domains shown)
VH: B2 VH
VL: B2 VL
notes: variable domains of 1A2; also called 1A2-hlgG1
With B5, in [7], the affinity, expressed as Kd, was 0.0462 nM and the T1/2 stood at 0.65 h. In assay [8], binding was characterised by a dissociation constant (Kd) of 0.0623 nM and the T1/2 is 1.6 h.

B6: 21-E5 (antibody, V domains shown)
VH: QVQLVESGPGLVKPSETLSLTCTVYGGSISSGNYYWGWIRQPPGKGLEWIGTIYYSGSAYYNPSLKSRVTMSVDTSKNQFSLKLSSVTAADTAVYYCVRDYYDSSGHYYNWFDPWGQGTTVTVSS
VL: AIQMTQSPSSLSASVGDRVTITCRASQDIRHDLGWYQQKPGKAPKRLIYAASSLQSGVPSRFSGSGSGTEFTLTISSLQPEDFATYYCLQHNTYPWTFGQGTKVEIKR
With B6, in [1], the “IC50 … A204/Smad2 cells, 0.8 nM GDF8” value worked out at 8.5 nM. Further, the “IC50 … A204/Smad2 cells, 0.8 nM GDF11” value in assay [2] worked out at 35 nM. In addition, in assay [3], the Kd was 0.26 nM and the T1/2 amounted to 2.3 h. In addition, in [4], the equilibrium dissociation constant (Kd) is 0.12 nM and the T1/2 is 1.93 h. In addition, in assay [9], the “IC50, luciferase bioassay, 0.5 nM GDF8” value came out at 2.34 nM and the “IC50, luciferase bioassay, 1 nM GDF8” value came out at 2.98 nM. In assay [10], the “IC50, luciferase bioassay, 0.4 nM GDF11” value worked out at 6.9 nM and the “IC50, luciferase bioassay, 0.8 nM GDF11” value was found to be 10.5 nM.

B7: 21-B9 (antibody, V domains shown)
VH: B6 VH with E6Q, Y25S, S31N, G32S, I53T, S58T, A59T, M71I, V98A, H107Y
VL: B6 VL with A1D, M4L, H31N, T72S, I75L, Y87F, N92H, T93I, V104L
In the case of B7, the “IC50 … A204/Smad2 cells, 0.8 nM GDF8” value in assay [1] turned out to be 0.62 nM. In addition, the “IC50 … A204/Smad2 cells, 0.8 nM GDF11” value in assay [2] was 1.2 nM. Moreover, the Kd in [3] is 0.12 nM; in assay [4], 0.064 nM. Moreover, the figures for the T1/2 in assay [3] and in [4] were 2.1 h and 2.22 h, respectively.

B8: 21-E9 (antibody, V domains shown)
VH: EVQLVQLGPGLVKPSETLSLTCTVSGGSISNSNYYWGWIRQPPGKGLEWIGTTYYSGTTYYNPSLKSRVTISVDTSKNQFSLKLSSVTAADTAVYYCARDYYDSSGYYYNWFDPWGQGTTVTVSS
VL: B6 VL with H31N, T72S, I75L, Y87F, N92H, T93I
B8: the “IC50 … A204/Smad2 cells, 0.8 nM GDF8” value in assay [1] was determined as 0.99 nM. Besides, in [2], the “IC50 … A204/Smad2 cells, 0.8 nM GDF11” value was 1.2 nM. In assay [3], this molecule displayed a Kd of 0.14 nM and a T1/2 of 2.58 h. In assay [4], this molecule returned a Kd of 0.07 nM and a T1/2 of 3.68 h.

B9: 4G3-25 (antibody, V domains shown)
VH: QVQLVESGGGVVQPGRSLRLSCVVSGFNFSRNGIHWVRQAPGKGLEWVAVISYDGRNKFYVESVKGRFTISRDNSKNTLYLQMNSLRVEDTAVYYCAKSSIGGFFEYWGQGTLVTVSS
VL: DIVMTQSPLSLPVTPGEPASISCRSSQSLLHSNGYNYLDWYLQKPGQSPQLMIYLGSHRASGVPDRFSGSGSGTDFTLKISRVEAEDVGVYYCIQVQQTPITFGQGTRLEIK
In the case of B9, the “IC50 … A204/Smad2 cells, 0.8 nM GDF8” value in assay [1] was more than 25 nM. Besides, the “IC50 … A204/Smad2 cells, 0.8 nM GDF11” value in assay [2] was more than 25 nM. In addition, the results for the Kd in [3] and in assay [4] were 3.9 nM and 1.41 nM, respectively. Besides, the T1/2 came to 0.417 h in assay [3] and 0.65 h in assay [4].

B10: 3A4-3 (antibody, V domains shown)
VH: QVQLVQSGGGLVKPGGSLRLSCAASGFIFNTYTMNWVRQAPGKGLEWVSSITSRGTYIFYSDSLKGRFTISRDNANNSLFLQMNSLRVEDTAVYYCSRDRGYTFGPDYWGQGTLVTVSS
VL: DIQMTQSPSSLSASVGDRVTITCRASQDIRNDLGWYQQKPGKAPKGLIYAASSLQSGVPSRFSGSGSGTEFTLTISSLQPEDFATYHCLHYDFHPRTFGQGTKVEIK
Turning to B10, in [1], the “IC50 … A204/Smad2 cells, 0.8 nM GDF8” value was found to be 3.1 nM. In addition, in assay [2], the “IC50 … A204/Smad2 cells, 0.8 nM GDF11” value was more than 20 nM. Further, the figures for the equilibrium dissociation constant (Kd) in assay [3] and in [4] were 1.07 nM and 0.51 nM, respectively. The T1/2 in assay [3] amounted to 2.28 h; in assay [4] it was 1.18 h.

B11: H4H1669P (antibody, V domains shown)
VH: QVQLVESGGGVVQPGKSLRLSCAASGFTFSSFGMHWVRQAPGKGLEWVAVIGYDGGNEYYADSVKGRFTISRDNSKNTLNLQMSSLRAEDTAVYYCSTISHYDILSGMDVWGRGTTVTVSS
VL: DIQMTQSPSSVSASVGDRVTITCRASQGISNWLAWYQQKPGKAPKLLIFAASSLQSGVPSRFSGSASGTDFTLTINSLQPEDFATYYCQQANSFPLTFGGGTKVEIKR
notes: captured by anti-hFc, so human Fc
In assay [7], B11 came in with an equilibrium dissociation constant (Kd) of 0.0584 nM and a T1/2 of 0.667 h. In [11], the binding result is reported as “no binding”. In [8], this molecule returned a dissociation constant Kd of 0.0393 nM and a T1/2 of 2.18 h. Also, in assay [9], the “IC50, luciferase bioassay, 0.5 nM GDF8” value came to 0.9 nM.

A word on the Kd: it is the concentration at which binding is half-saturated. Higher therefore signals weaker binding.
